For assay [1], the target named is T1, VCAM-1 expression in the atherosclerotic lesion (Mus musculus, UniProt P29533).
T1 construct: The inventors observed a positive VCAM-1 staining in the atherosclerotic lesion as compared with a contralateral vessel; from tissue; host or cells: ligated left carotid artery (atherosclerotic lesion) of living ApoE-/- mice
T1 sequence (P29533 25-739): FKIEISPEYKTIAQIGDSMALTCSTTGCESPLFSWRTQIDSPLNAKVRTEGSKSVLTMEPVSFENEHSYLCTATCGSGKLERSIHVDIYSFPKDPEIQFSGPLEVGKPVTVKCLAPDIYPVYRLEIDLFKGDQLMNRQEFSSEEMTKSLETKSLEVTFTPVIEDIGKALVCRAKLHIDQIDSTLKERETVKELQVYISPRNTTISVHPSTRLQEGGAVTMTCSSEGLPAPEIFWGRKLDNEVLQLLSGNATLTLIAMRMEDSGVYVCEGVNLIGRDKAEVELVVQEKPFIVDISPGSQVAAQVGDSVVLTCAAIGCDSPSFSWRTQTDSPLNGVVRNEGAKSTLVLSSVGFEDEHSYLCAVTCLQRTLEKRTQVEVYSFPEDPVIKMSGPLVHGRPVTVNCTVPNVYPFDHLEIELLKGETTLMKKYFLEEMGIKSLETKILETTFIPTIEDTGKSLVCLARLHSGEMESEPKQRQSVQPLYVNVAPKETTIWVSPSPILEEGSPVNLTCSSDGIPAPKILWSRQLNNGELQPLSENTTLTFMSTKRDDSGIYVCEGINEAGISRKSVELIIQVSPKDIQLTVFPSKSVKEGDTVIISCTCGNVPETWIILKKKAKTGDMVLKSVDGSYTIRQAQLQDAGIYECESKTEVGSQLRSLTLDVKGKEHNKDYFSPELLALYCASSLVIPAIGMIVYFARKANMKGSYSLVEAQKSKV
The assay is described as follows: In vivo whole-body planar imaging. Set-up: species or system ApoE−/− mice. The conditions noted are these: for Left-to-right carotid activity ratio from quantified planar images compared to EP43: FIG. 8, FIG. 9; for Non invasive imaging of tracer uptake in the carotid atherosclerotic lesion: whole-body planar images, similar dose of tracer, FIG. 6. Here is the method:
In vivo planar imaging was performed using a small-animal dedicated gamma-camera equipped with a parallel-hole collimator.

The target of assay [2] is T1, VCAM-1 expression in the atherosclerotic lesion. The experiment in a line: Carotid activity ratios from gamma-well counting of excised vessels and blood. Type of assay: in vivo, ApoE−/− mice. The conditions noted are these: for Left-to-right carotid artery activity ratio compared with EP43: FIG. 4; for Left carotid-to-blood activity ratio compared with EP43: FIG. 5. The text has this:
The inventors also analyzed the left-to-right carotid activity ratios (FIG. 1) and left carotid-to-blood activity ratios (FIG. 2). These ratios were obtained from gamma-well counting of excised vessels and blood.

The target of assay [3] is T2, VCAM-1 expression in atherosclerotic lesions (Mus musculus, UniProt P29533).
T2 construct: The inventors observed a positive VCAM-1 staining in the atherosclerotic lesion as compared with a contralateral vessel; from tissue; host or cells: ligated left carotid artery (atherosclerotic lesion) of living ApoE-/- mice
T2 sequence (P29533 25-739): T1 sequence (P29533 25-739)
The assay is described as follows: In vivo pinhole SPECT imaging. Set-up: species or system ApoE−/− mice. The method, then:
In vivo pinhole SPECT imaging was performed using a small-animal dedicated gamma-camera equipped with a pinhole collimator for high-resolution imaging.

Assay [4] is described as follows: Organ biodistribution of 99mTc-labelled tracers by gamma-well counting of excised organs. As to conditions: 3 hours after injection.
Description: An experimental model of ApoE^−/− mice with left carotid artery ligation was used.
Left carotid artery ligation was performed under anesthesia and the animals were returned to their cages. Three weeks later, the animals were re-anesthetized and the radiotracers were injected in a lateral tail vein. Planar imaging was performed for 3 hours before the animals were euthanized. The major organs were excised, weighed and gamma-well counted for the determination of the tracers' biodistribution.
A further assay addresses T3, VCAM-1 (Homo sapiens, UniProt P19320).
T3 sequence (P19320 25-739): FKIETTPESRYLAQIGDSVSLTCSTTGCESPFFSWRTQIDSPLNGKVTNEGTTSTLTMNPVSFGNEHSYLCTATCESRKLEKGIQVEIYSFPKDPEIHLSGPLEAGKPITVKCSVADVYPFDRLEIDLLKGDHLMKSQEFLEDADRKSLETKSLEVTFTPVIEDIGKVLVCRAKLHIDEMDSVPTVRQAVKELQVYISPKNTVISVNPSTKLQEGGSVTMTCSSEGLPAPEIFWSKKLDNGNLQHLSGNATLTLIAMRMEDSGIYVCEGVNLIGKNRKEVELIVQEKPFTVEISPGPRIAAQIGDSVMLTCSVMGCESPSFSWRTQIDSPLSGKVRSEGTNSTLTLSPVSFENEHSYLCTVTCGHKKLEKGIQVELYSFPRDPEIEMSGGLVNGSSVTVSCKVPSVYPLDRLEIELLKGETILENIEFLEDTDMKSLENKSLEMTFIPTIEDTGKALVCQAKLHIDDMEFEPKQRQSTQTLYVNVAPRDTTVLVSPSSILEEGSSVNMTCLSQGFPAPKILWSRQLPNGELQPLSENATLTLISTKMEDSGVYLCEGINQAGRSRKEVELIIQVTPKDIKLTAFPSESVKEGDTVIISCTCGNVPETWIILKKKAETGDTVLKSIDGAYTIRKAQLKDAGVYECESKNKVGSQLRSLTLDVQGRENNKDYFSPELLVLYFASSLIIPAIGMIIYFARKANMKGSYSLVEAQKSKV
The conditions noted are these: Ling et al. (2000); cited from earlier work.

The mark [5] stands for this setting: high resolution pinhole SPECT, FIG. 10.

Where no end group is shown, it is not given here.

As for HGRANLRILAAY (also: 99mTc label) [EP52], the “Left-to-right carotid activity ratio from quantified planar images compared to EP43” value in assay [1] is “did not display improved”. Besides, in assay [2], the “Left-to-right carotid artery activity ratio compared with EP43” value was “did not display improved” and the “Left carotid-to-blood activity ratio compared with EP43” value is given as “did not display improved”.

HGRANLRILARA (also: 99mTc label) [EP51]: the “Left-to-right carotid activity ratio from quantified planar images compared to EP43” value in assay [1] is reported as “did not display improved”. In addition, in assay [2], the “Left-to-right carotid artery activity ratio compared with EP43” value is “did not display improved” and the “Left carotid-to-blood activity ratio compared with EP43” value is listed as “did not display improved”.

For the sequence “HGRANLRILARY (not fully specified; also: 99mTc label) [EP43]”, the “Quantification of planar images, compared with other evaluated tracers” value in assay [1] (FIG. 7) is listed as “superiority”. Besides, the “Non invasive imaging of tracer uptake in the carotid atherosclerotic lesion” value in assay [1] is “allowed the detection of VCAM-1 expression in the atherosclerotic lesion”. Also, the “Tracer activity in the atherosclerotic lesion versus contralateral vessel, image quantification” value in assay [3] (all animals, FIG. 11) is “significantly higher mean tracer activity”. For the same sequence, in assay [3] (conclusion), the “In vivo SPECT imaging of VCAM-1 expression in atherosclerotic lesions” value was “allowed in vivo SPECT imaging of VCAM-1 expression in atherosclerotic lesions”. Moreover, in assay [3] (setting [5]), the “Tracer activity in the right carotid area” value was “no significant tracer activity could be detected” and the “Tracer uptake at the atherosclerotic lesion (left carotid)” value is on record as “uptake at the level of the atherosclerotic lesion”. In assay [4], the “Left carotid activity, compared among tracers” value is reported as “highest left carotid activity” and the “Tracer activity in the atherosclerotic lesion versus contralateral, control carotid” value was “significantly higher”. Moreover, the “Left-to-right carotid activity ratio versus B2702-p” value in assay [2] (gamma-well counting, FIG. 1) is on record as “significantly higher”. Also, the “Left carotid-to-blood activity ratio versus B2702-p” value in assay [2] (gamma-well counting, FIG. 2) was “significantly higher”.

For the sequence “HGRENLRIALRY [B2702-p, parent tracer, reference compound]”, the “Binding to VCAM-1” value with VCAM-1 is on record as “bind specifically”. The “Non invasive imaging of tracer uptake in the carotid atherosclerotic lesion” value in assay [1] was “high circulating blood activity precluded the non invasive imaging”.

Consider “YRLAIRLNER RENLRIALRY (YRLAIRLNERRENLRIALRY; B2702-rp)”, for which the “Binding to VCAM-1” value with VCAM-1 is recorded as “bind specifically”.

The values above are taken from patent publication US20120034163A1, “NON-INVASIVE TOOLS FOR DETECTING VULNERABLE ATHEROSCLEROTIC PLAQUES” (UNIVERSITE JOSEPH FOURIER, priority 2009, published 2012).
